Experimental data reported in article PMC6796863, “Structural insight into human N6amt1–Trm112 complex functioning as a protein methyltransferase” (Cell Discovery, 2019).

Biological target: T1, human N6amt1–Trm112 complex (human, UniProt Q9Y5N5 1-214; Q9UI30 1-125)
T1 construct: human N6amt1 (HemK2), full length, 214 amino acids; human Trm112, full length; SAM co-purifies with the complex; before the ITC titration the complex was incubated with SAH at a molar ratio of 1:2; also called the protein complex; source: E. coli BL21(DE3), co-expressed from pET-Duet, purified (Ni-NTA, gel filtration)
T1 sequence (looked up) 1: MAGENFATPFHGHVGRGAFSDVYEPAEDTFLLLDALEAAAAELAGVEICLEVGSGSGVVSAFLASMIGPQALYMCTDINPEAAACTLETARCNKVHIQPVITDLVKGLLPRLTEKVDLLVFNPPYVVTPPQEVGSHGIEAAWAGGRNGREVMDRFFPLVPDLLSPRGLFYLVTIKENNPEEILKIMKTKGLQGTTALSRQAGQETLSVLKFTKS
T1 sequence (looked up) 2: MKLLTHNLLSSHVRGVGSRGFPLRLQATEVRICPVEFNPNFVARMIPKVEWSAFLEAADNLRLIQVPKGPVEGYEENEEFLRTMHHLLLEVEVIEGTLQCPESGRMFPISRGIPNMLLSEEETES
Assay: ITC; 2 mM peptide injected into 0.1 mM N6amt1–Trm112 in the cell, 20 °C; complex incubated beforehand with SAH at a molar ratio of 1:2; single binding site model
Details: both partners purified

Kd: 490 ± 150 µM
B1: Gln185-centered 15-residue peptide of human eRF1 (GGQ peptide) (peptide)
peptide: KKHGRGGQSALRFAR
notes: human eRF1, 15-residue peptide centered at Gln185; also called 15-residue GGQ peptide of eRF1
